{"source": "patent US11034759B2", "about": "“Humanized M-CSF specific monoclonal antibodies, kits, and uses thereof” (NOVARTIS VACCINES AND DIAGNOSTICS, INC., priority 2004, dated 2021)", "molecules": {"B1": {"name": "heRX1-9.G2: Human Engineered RX1: light chain Low + Mod Risk (Germline), heavy chain Low Risk (Kabat), Gamma 2 (antibody)", "heavy": "DVQLQESGPGLVKPSQTLSLTCTVTDYSITSDYAWNWIRQFPGKKLEWMGYISYSGSTSYNPSLKSRITISRDTSKNQFSLQLNSVTAADTATYYCASFDYAHAMDYWGQGTTVTVSS", "light": "DIVLTQSPAFLSVTPGEKVTFTCQASQSIGTSIHWYQQKTDQAPKLLIKYASESISGIPSRFSGSGSGTDFTLTISSVEAEDAADYYCQQINSWPTTFGGGTKLEIKRT", "modifications": "left off: a dimerising Fc or GST"}, "B2": {"name": "heRX1-1.G2: Human Engineered RX1: light chain Low Risk (Kabat), heavy chain Low Risk (Kabat), Gamma 2 (antibody)", "heavy": "DVQLQESGPGLVKPSQTLSLTCTVTDYSITSDYAWNWIRQFPGKKLEWMGYISYSGSTSYNPSLKSRITISRDTSKNQFSLQLNSVTAADTATYYCASFDYAHAMDYWGQGTTVTVSS", "light": "EIVLTQSPGTLSVSPGERVTFSCRASQSIGTSIHWYQQKTGQSPRLLIKYASERISGIPDRFSGSGSGTDFTLTISRVESEDFADYYCQQINSWPTTFGQGTKLEIKRT", "modifications": "left off: a dimerising Fc or GST"}, "B3": {"name": "heRX1-8.G2: Human Engineered RX1: light chain Low + Mod Risk (Kabat) − RAT 54, 55, 56 to SIS, heavy chain Low + Mod Risk (Kabat), Gamma 2 (antibody, V domains shown)", "VH": "QVQLQESGPGLVKPSQTLSLTCTVSDYSITSDYAWNWIRQFPGKGLEWMGYISYSGSTSYNPSLKSRITISRDTSKNQFSLQLNSVTAADTAVYYCASFDYAHAMDYWGQGTTVTVSS", "VL": "EIVLTQSPGTLSVSPGERVTFSCRASQSIGTSIHWYQQKTGQAPRLLIKYASESISGIPDRFSGSGSGTDFTLTISRVESEDFADYYCQQINSWPTTFGQGTKLEIK"}, "B4": {"name": "heRX1-4.G2: Human Engineered RX1: light chain Low + Mod Risk (Kabat), heavy chain Low + Mod Risk (Kabat), Gamma 2 (antibody)", "heavy": "QVQLQESGPGLVKPSQTLSLTCTVSDYSITSDYAWNWIRQFPGKGLEWMGYISYSGSTSYNPSLKSRITISRDTSKNQFSLQLNSVTAADTAVYYCASFDYAHAMDYWGQGTTVTVSS", "light": "EIVLTQSPGTLSVSPGERVTFSCRASQSIGTSIHWYQQKTGQAPRLLIKYASERATGIPDRFSGSGSGTDFTLTISRVESEDFADYYCQQINSWPTTFGQGTKLEIKRT", "modifications": "left off: a dimerising Fc or GST"}, "B5": {"name": "heRX1-2.G2: Human Engineered RX1: light chain Low Risk (Kabat), heavy chain Low + Mod Risk (Kabat), Gamma 2 (antibody)", "heavy": "QVQLQESGPGLVKPSQTLSLTCTVSDYSITSDYAWNWIRQFPGKGLEWMGYISYSGSTSYNPSLKSRITISRDTSKNQFSLQLNSVTAADTAVYYCASFDYAHAMDYWGQGTTVTVSS", "light": "EIVLTQSPGTLSVSPGERVTFSCRASQSIGTSIHWYQQKTGQSPRLLIKYASERISGIPDRFSGSGSGTDFTLTISRVESEDFADYYCQQINSWPTTFGQGTKLEIKRT", "modifications": "left off: a dimerising Fc or GST"}, "B6": {"name": "heRX1-7.G2: Human Engineered RX1: light chain Low + Mod Risk (Kabat) − RAT54, 55, 56 to SIS, heavy chain Low Risk (Kabat), Gamma 2 (antibody, V domains shown)", "VH": "DVQLQESGPGLVKPSQTLSLTCTVTDYSITSDYAWNWIRQFPGKKLEWMGYISYSGSTSYNPSLKSRITISRDTSKNQFSLQLNSVTAADTATYYCASFDYAHAMDYWGQGTTVTVSS", "VL": "EIVLTQSPGTLSVSPGERVTFSCRASQSIGTSIHWYQQKTGQAPRLLIKYASESISGIPDRFSGSGSGTDFTLTISRVESEDFADYYCQQINSWPTTFGQGTKLEIK"}, "B7": {"name": "heRX1-10.G2: Human Engineered RX1: light chain Low + Mod Risk (Germline), heavy chain Low + Mod Risk (Kabat), Gamma 2 (antibody)", "heavy": "QVQLQESGPGLVKPSQTLSLTCTVSDYSITSDYAWNWIRQFPGKGLEWMGYISYSGSTSYNPSLKSRITISRDTSKNQFSLQLNSVTAADTAVYYCASFDYAHAMDYWGQGTTVTVSS", "light": "DIVLTQSPAFLSVTPGEKVTFTCQASQSIGTSIHWYQQKTDQAPKLLIKYASESISGIPSRFSGSGSGTDFTLTISSVEAEDAADYYCQQINSWPTTFGGGTKLEIKRT", "modifications": "left off: a dimerising Fc or GST"}, "B8": {"name": "heRX1-5.G2: Human Engineered RX1: light chain Low Risk (Kabat) − R54 to S, heavy chain Low Risk (Kabat), Gamma 2 (antibody)", "heavy": "DVQLQESGPGLVKPSQTLSLTCTVTDYSITSDYAWNWIRQFPGKKLEWMGYISYSGSTSYNPSLKSRITISRDTSKNQFSLQLNSVTAADTATYYCASFDYAHAMDYWGQGTTVTVSS", "light": "EIVLTQSPGTLSVSPGERVTFSCRASQSIGTSIHWYQQKTGQSPRLLIKYASESISGIPDRFSGSGSGTDFTLTISRVESEDFADYYCQQINSWPTTFGQGTKLEIKRT", "modifications": "left off: a dimerising Fc or GST"}, "B9": {"name": "heRX1-3.G2: Human Engineered RX1: light chain Low + Mod Risk (Kabat), heavy chain Low Risk (Kabat), Gamma 2 (antibody)", "heavy": "DVQLQESGPGLVKPSQTLSLTCTVTDYSITSDYAWNWIRQFPGKKLEWMGYISYSGSTSYNPSLKSRITISRDTSKNQFSLQLNSVTAADTATYYCASFDYAHAMDYWGQGTTVTVSS", "light": "EIVLTQSPGTLSVSPGERVTFSCRASQSIGTSIHWYQQKTGQAPRLLIKYASERATGIPDRFSGSGSGTDFTLTISRVESEDFADYYCQQINSWPTTFGQGTKLEIKRT", "modifications": "left off: a dimerising Fc or GST"}, "B10": {"name": "MC1: MCSF-specific murine antibody MC1 (SEQ ID NOs: 12 and 13), hybridoma ATCC PTA-6263 (antibody, listed as Mus musculus)", "heavy": "EVKLVESGGGLVQPGGSLKLSCATSGFTFSDYYMYWVRQTPEKRLEWVAYISNGGGSTYYPDTVKGRFTISRDNAKNTLYLQMSRLKSEDTAMYYCARQGSYGYPFAYWGQGTLVTVSAAKTTAPSVYPLAPVCGDTTGSSVTLGCLVKGYFPEPVTLTWNSGSLSSGVHTFPAVLQSDLYTLSSSVTVTSSTWPSQSITCNVAHPASSTKVDKKIEPRGPTIKPCPPCKCPAPNLLGGPSVFIFPPKIKDVLMISLSPIVTCVVVDVSEDDPDVQISWFVNNVEVHTAQTQTHREDYNSTLRVVSALPIQHQDWMSGKEFKCKVNNKDLPAPIERTISKPKGSVRAPQVYVLPPPEEEMTKKQVTLTCMVTDFMPEDIYVEWTNNGKTELNYKNTEPVLDSDGSYFMYSKLRVEKKNWVERNSYSCSVVHEGLHNHHTTKSFSRTPGK", "light": "AIQMTQTTSSLSASLGDRVTISCSASQGISNYLNWYQQKPDGTVKLLIYYTSSLHSGVPSRFSGSGSGTDYSLTISNLEPEDIATYYCQQYSKLPWTFGGGTKLEIKRADAAPTVSIFPPSSEQLTSGGASVVCFLNNFYPKDINVKWKIDGSERQNGVLNSWTDQDSKDSTYSMSSTLTLTKDEYERHNSYTCEATHKTSTSPIVKSFNRNEC"}}, "key": {"[1]": {"target": "T1, MCSF (Homo sapiens, UniProt P09603)", "T1 sequence (P09603 33-255 limits assumed)": "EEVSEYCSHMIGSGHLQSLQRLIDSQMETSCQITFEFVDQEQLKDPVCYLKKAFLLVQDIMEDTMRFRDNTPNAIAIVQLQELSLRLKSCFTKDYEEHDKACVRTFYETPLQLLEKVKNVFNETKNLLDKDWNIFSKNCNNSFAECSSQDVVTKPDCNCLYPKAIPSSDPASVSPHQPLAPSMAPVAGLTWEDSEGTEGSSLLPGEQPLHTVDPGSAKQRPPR", "assay": "Biacore analysis of Human Engineered RX1 antibodies, M-CSF immobilized (Example 13)", "format": "binding", "method": "To determine the relative differences in the binding affinity of intact antibodies by Biacore analysis, M-CSF was immobilized onto CMS biosensor chip via amine coupling. 0.05 μg/ml M-CSF in 10 mM Na-Acetate pH 4.0 was injected at 1 μl/min for 5 minutes to achieve RL=6-12 RU. Test antibody or Fab fragments were flowed over the modified biosensor surface at varying concentrations ranging from 100 nM to 1.5 nM in 2-fold dilutions. Test antibodies were diluted in 0.01 M HEPES pH 7.4, 0.15 M NaCL, 3 mM EDTA, 0.005% Surfactant P20 (HBS-EP) and all experiments were done at 25° C. Each concentration point and buffer blanks were run in triplicate, and data was collected over 3 minutes of association and 8 minutes of dissociation. Kinetic and affinity constants were determined using Biaevaluation software with a 1:1 interaction model/global fit."}, "[2]": {"target": "T1, MCSF", "assay": "Size of antigen-antibody complex by size exclusion chromatography or light scattering", "conditions": "M-CSF and antibody at equal molar ratios"}, "[3]": {"target": "T1, MCSF", "assay": "M-NFS-60 proliferation assay, neutralizing activity (Example 1)", "format": "cell-based", "conditions": "10 ng/ml M-CSF, 72 hours", "method": "Proliferation of M-NFS-60 requires active M-CSF in a dose-dependent fashion. In the assay, M-NFS-60 cells were washed and plated in RPMI 1640 medium with 10% FBS and 3000 U/ml of M-CSF and 1% Pen/Strep. Recombinant human M-CSF (at 10 ng/ml final concentration), human or murine-specific, was incubated with various concentrations of antibodies for 1 hour at 37° C. in 5% CO2 in an incubator. Following the incubation, the mixture was added to the M-NFS-60 culture in 96 well microtiter plates. Cells were incubated at 37° C. under 5% CO2 for 72 hours before cell numbers were quantified by CellTiter Glo assay (Promega). The aforementioned assay was repeated for antibodies MC3 and MC1."}}, "data": [{"molecule": "B1", "values": [{"measurement": "ka", "setting": "[1]; Table 11, 25° C.", "result": 200000, "unit": "M⁻¹ s⁻¹"}, {"measurement": "kd", "setting": "[1]; Table 11, 25° C.", "result": 0.00144, "unit": "s⁻¹"}, {"measurement": "Size of antigen-antibody complex", "setting": "[2]", "result": "about 400 kDa"}, {"measurement": "Type of antigen-antibody complex formed with MCSF", "setting": "[2]", "result": "2:1 or 2:2 complexes"}]}, {"molecule": "B2", "values": [{"measurement": "kd (sec-1)", "setting": "[1]; Table 10, 25° C.", "result": "(1.37 ± 0.24) × 10^−3 sec-1"}, {"measurement": "kd (sec-1)", "setting": "[1]; Table 11, 25° C.", "result": "(1.37 ± 0.24) × 10^−3 sec-1"}, {"measurement": "Size of antigen-antibody complex", "setting": "[2]", "result": "greater than 2×10^6 Da"}, {"measurement": "Type of antigen-antibody complex formed with MCSF", "setting": "[2]", "result": "large lattice aggregates"}]}, {"molecule": "B3", "values": [{"measurement": "ka", "setting": "[1]; Table 11, 25° C.", "result": 152000, "unit": "M⁻¹ s⁻¹"}, {"measurement": "kd", "setting": "[1]; Table 11, 25° C.", "result": 0.00148, "unit": "s⁻¹"}]}, {"molecule": "B4", "values": [{"measurement": "ka", "setting": "[1]; Table 11, 25° C.", "result": 238000, "unit": "M⁻¹ s⁻¹"}, {"measurement": "kd", "setting": "[1]; Table 11, 25° C.", "result": 0.00108, "unit": "s⁻¹"}]}, {"molecule": "B5", "values": [{"measurement": "ka", "setting": "[1]; Table 11, 25° C.", "result": 218000, "unit": "M⁻¹ s⁻¹"}, {"measurement": "kd", "setting": "[1]; Table 11, 25° C.", "result": 0.00165, "unit": "s⁻¹"}]}, {"molecule": "B6", "values": [{"measurement": "ka", "setting": "[1]; Table 11, 25° C.", "result": 157000, "unit": "M⁻¹ s⁻¹"}, {"measurement": "kd", "setting": "[1]; Table 11, 25° C.", "result": 0.00149, "unit": "s⁻¹"}]}, {"molecule": "B7", "values": [{"measurement": "kd (sec-1)", "setting": "[1]; Table 10, 25° C.", "result": "(1.1 ± 0.11) × 10^−3 sec-1"}, {"measurement": "kd (sec-1)", "setting": "[1]; Table 11, 25° C.", "result": "(1.1 ± 0.11) × 10^−3 sec-1"}, {"measurement": "Size of antigen-antibody complex", "setting": "[2]", "result": "about 400 kDa"}, {"measurement": "Type of antigen-antibody complex formed with MCSF", "setting": "[2]", "result": "2:1 or 2:2 complexes"}]}, {"molecule": "B8", "values": [{"measurement": "ka", "setting": "[1]; Table 11, 25° C.", "result": 175000, "unit": "M⁻¹ s⁻¹"}, {"measurement": "kd", "setting": "[1]; Table 11, 25° C.", "result": 0.00129, "unit": "s⁻¹"}]}, {"molecule": "B9", "values": [{"measurement": "ka", "setting": "[1]; Table 11, 25° C.", "result": 201000, "unit": "M⁻¹ s⁻¹"}, {"measurement": "kd", "setting": "[1]; Table 11, 25° C.", "result": 0.00118, "unit": "s⁻¹"}]}, {"molecule": "B10", "values": [{"measurement": "Neutralization of M-CSF activity (M-NFS-60 proliferation)", "setting": "[3]", "result": "effective inhibitors of M-CSF activity"}]}]}
